Earlier results in patent EP0997151B1, “Method for administering insulinotropic peptides” (priority 1998, dated 2006).

Conditions: pulmonary delivery; calculated, background

Substance: parathyroid hormone (1-34)
- Absorption values for proteins delivered through the lungs: fifteen
